This passage reports protein stability index results from the supplement of paper PMC10567573.

The chains are these.
B1: GFOD1 (parent)
chain: EEAEELAKEMSVPFYTSRIDEVLL
B2: ZNF263 (parent)
chain: EKPYKCPECGEIFAHSSNLLRHQR
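Note: lentivirally expressed fusions sorted by FACS into six bins by GFP to DsRed ratio, PSI derived from sequencing read proportions per bin multiplied by bin number.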

The variants in one data set derive from B1. Kind of data set: protein stability index of a GFP-peptide fusion (GPS, HEK-293T) (PSI 1-6); higher = more stable. Conditions: c terminus: a fixed tail appended.
In the case of EEAEWLAKEMSVPFYTSRIDEVLL [E5W], the protein stability index amounted to 2.35. Same read-out and setting: to EEAECLAKEMSVPFYTSRIDEVLL [E5C] belongs 3.79; to EEAERLAKEMSVPFYTSRIDEVLL [E5R], 3.56; to EEAEDLAKEMSVPFYTSRIDEVLL [E5D], 3.93. For the variant EEAEALAKEMSVPFYTSRIDEVLL [E5A], the protein stability index was 3.45. As to EEAENLAKEMSVPFYTSRIDEVLL [E5N], the protein stability index was determined as 3.23. Consider EEAESLAKEMSVPFYTSRIDEVLL [E5S], for which the protein stability index is 3.13. With EEAEILAKEMSVPFYTSRIDEVLL [E5I], the protein stability index was found to be 2.57. The same measure, in the same setting: in the case of EEAETLAKEMSVPFYTSRIDEVLL [E5T] it was 3.48; in that of EEAEVLAKEMSVPFYTSRIDEVLL [E5V], 2.58. On the same count and under the same terms, to EEAEKLAKEMSVPFYTSRIDEVLL [E5K] belongs 4.14; to EEAEMLAKEMSVPFYTSRIDEVLL [E5M], 2.95. Same read-out and setting: to EEAEYLAKEMSVPFYTSRIDEVLL [E5Y] belongs 3.98. As for EEAELLAKEMSVPFYTSRIDEVLL [E5L], the protein stability index came to 4.05.

With EEAEHLAKEMSVPFYTSRIDEVLL [E5H], the protein stability index was determined as 3.6. Same read-out and setting: to EEAEPLAKEMSVPFYTSRIDEVLL [E5P] belongs 3.96.

EEAEGLAKEMSVPFYTSRIDEVLL [E5G]: the protein stability index came out at 4.04. On the same count and under the same terms, in the case of EEAEFLAKEMSVPFYTSRIDEVLL [E5F] it was 2.94; in that of EEAEECAKEMSVPFYTSRIDEVLL [L6C], 4.38; in that of EEAEEQAKEMSVPFYTSRIDEVLL [L6Q], 3.7. Turning to EEAEEIAKEMSVPFYTSRIDEVLL [L6I], the protein stability index was found to be 3.73. Same read-out and setting: in the case of EEAEENAKEMSVPFYTSRIDEVLL [L6N] it was 4.51. Consider EEAEEFAKEMSVPFYTSRIDEVLL [L6F], for which the protein stability index worked out at 3.93. Regarding EEAEEAAKEMSVPFYTSRIDEVLL [L6A], the protein stability index turned out to be 4.38.

On to EEAEEMAKEMSVPFYTSRIDEVLL [L6M], for which the protein stability index turned out to be 4.01. The same measure, in the same setting: in the case of EEAEEEAKEMSVPFYTSRIDEVLL [L6E] it was 4.67.

Take EEAEEPAKEMSVPFYTSRIDEVLL [L6P]: the protein stability index was 4.26. EEAEEKAKEMSVPFYTSRIDEVLL [L6K]: the protein stability index amounted to 4.54. Consider EEAEEDAKEMSVPFYTSRIDEVLL [L6D], for which the protein stability index is 4.99. In the case of EEAEEHAKEMSVPFYTSRIDEVLL [L6H], the protein stability index was found to be 4.48. On to EEARELAKEMSVPFYTSRIDEVLL [E4R], for which the protein stability index came out at 3.52. Regarding EEAPELAKEMSVPFYTSRIDEVLL [E4P], the protein stability index came out at 3.6.

EEAFELAKEMSVPFYTSRIDEVLL [E4F]: the protein stability index is 2.98. On the same count and under the same terms, in the case of EEAIELAKEMSVPFYTSRIDEVLL [E4I] it was 3.51; in that of EEAAELAKEMSVPFYTSRIDEVLL [E4A], 3.45; in that of EEAQELAKEMSVPFYTSRIDEVLL [E4Q], 3.9.

As for EEAYELAKEMSVPFYTSRIDEVLL [E4Y], the protein stability index was determined as 2.64. Turning to EEADELAKEMSVPFYTSRIDEVLL [E4D], the protein stability index was found to be 3.97. With EEAGELAKEMSVPFYTSRIDEVLL [E4G], the protein stability index was found to be 3.4. For the variant EEAKELAKEMSVPFYTSRIDEVLL [E4K], the protein stability index came out at 3.46.

Regarding EEAMELAKEMSVPFYTSRIDEVLL [E4M], the protein stability index came out at 4. In the case of EEACELAKEMSVPFYTSRIDEVLL [E4C], the protein stability index was determined as 2.73. Regarding EEANELAKEMSVPFYTSRIDEVLL [E4N], the protein stability index worked out at 3.92. As for EEAWELAKEMSVPFYTSRIDEVLL [E4W], the protein stability index is 2.77. As for EEAHELAKEMSVPFYTSRIDEVLL [E4H], the protein stability index amounted to 3.4. Take EEATELAKEMSVPFYTSRIDEVLL [E4T]: the protein stability index stood at 3.86.

Turning to EEASELAKEMSVPFYTSRIDEVLL [E4S], the protein stability index was 3.93.

For EEALELAKEMSVPFYTSRIDEVLL [E4L], the protein stability index amounted to 2.9. On the same count and under the same terms, in the case of EECEELAKEMSVPFYTSRIDEVLL [A3C] it was 2.56; in that of EEGEELAKEMSVPFYTSRIDEVLL [A3G], 3.95.

With EENEELAKEMSVPFYTSRIDEVLL [A3N], the protein stability index came to 4.03.

On to EEKEELAKEMSVPFYTSRIDEVLL [A3K], for which the protein stability index was 4.38. The same measure, in the same setting: in the case of EEEEELAKEMSVPFYTSRIDEVLL [A3E] it was 4.32; in that of EEYEELAKEMSVPFYTSRIDEVLL [A3Y], 3.38; in that of EEHEELAKEMSVPFYTSRIDEVLL [A3H], 3.84. As for EEVEELAKEMSVPFYTSRIDEVLL [A3V], the protein stability index came to 3.32. Consider EELEELAKEMSVPFYTSRIDEVLL [A3L], for which the protein stability index was determined as 3.11. Consider EDAEELAKEMSVPFYTSRIDEVLL [E2D], for which the protein stability index was determined as 3.72. For the variant ECAEELAKEMSVPFYTSRIDEVLL [E2C], the protein stability index turned out to be 3.06. The same measure, in the same setting: in the case of EYAEELAKEMSVPFYTSRIDEVLL [E2Y] it was 2.39; in that of EMAEELAKEMSVPFYTSRIDEVLL [E2M], 2.53. Consider ESAEELAKEMSVPFYTSRIDEVLL [E2S], for which the protein stability index was 3.41. On to EVAEELAKEMSVPFYTSRIDEVLL [E2V], for which the protein stability index was determined as 3.64. Turning to EGAEELAKEMSVPFYTSRIDEVLL [E2G], the protein stability index was 3.39. ERAEELAKEMSVPFYTSRIDEVLL [E2R]: the protein stability index was determined as 2.94. For the variant ETAEELAKEMSVPFYTSRIDEVLL [E2T], the protein stability index is 3.2. Still for that read-out and setting: in the case of ELAEELAKEMSVPFYTSRIDEVLL [E2L] it was 2.76; in that of EIAEELAKEMSVPFYTSRIDEVLL [E2I], 2.18.

For the variant EFAEELAKEMSVPFYTSRIDEVLL [E2F], the protein stability index amounted to 2.1.

With EHAEELAKEMSVPFYTSRIDEVLL [E2H], the protein stability index is 3.06.

In the case of EAAEELAKEMSVPFYTSRIDEVLL [E2A], the protein stability index turned out to be 3.66. For the variant ENAEELAKEMSVPFYTSRIDEVLL [E2N], the protein stability index is 4. For EWAEELAKEMSVPFYTSRIDEVLL [E2W], the protein stability index turned out to be 3.66. As to CEAEELAKEMSVPFYTSRIDEVLL [E1C], the protein stability index amounted to 3.08. Take VEAEELAKEMSVPFYTSRIDEVLL [E1V]: the protein stability index was 2.95. Same read-out and setting: to LEAEELAKEMSVPFYTSRIDEVLL [E1L] belongs 3.75; to AEAEELAKEMSVPFYTSRIDEVLL [E1A], 3.79; to KEAEELAKEMSVPFYTSRIDEVLL [E1K], 4.03.

Take SEAEELAKEMSVPFYTSRIDEVLL [E1S]: the protein stability index turned out to be 4.24. As to TEAEELAKEMSVPFYTSRIDEVLL [E1T], the protein stability index was 3.56. In the case of IEAEELAKEMSVPFYTSRIDEVLL [E1I], the protein stability index was 2.46. On the same count and under the same terms, to GEAEELAKEMSVPFYTSRIDEVLL [E1G] belongs 2.43.

On to HEAEELAKEMSVPFYTSRIDEVLL [E1H], for which the protein stability index was determined as 4.47.

YEAEELAKEMSVPFYTSRIDEVLL [E1Y]: the protein stability index was 2.98. Take NEAEELAKEMSVPFYTSRIDEVLL [E1N]: the protein stability index is 2.83. With PEAEELAKEMSVPFYTSRIDEVLL [E1P], the protein stability index is 3.51. In the case of MEAEELAKEMSVPFYTSRIDEVLL [E1M], the protein stability index is 3.45. As for REAEELAKEMSVPFYTSRIDEVLL [E1R], the protein stability index stood at 3.33.

In the next data set the parent is B2. The description is as above. The note with it: c terminus: a fixed tail appended.
As for EKPYKCPECGEIFAHSSNLCRHQR [L20C], the protein stability index was determined as 4.11. With EKPYKCPECGEIFAHSSNLFRHQR [L20F], the protein stability index is 1.78. Take EKPYKCPECGEIFAHSSNLDRHQR [L20D]: the protein stability index is 3.29. Consider EKPYKCPECGEIFAHSSNLERHQR [L20E], for which the protein stability index came out at 2.75.

In the case of EKPYKCPECGEIFAHSSNLPRHQR [L20P], the protein stability index turned out to be 1.84. For EKPYKCPECGEIFAHSSNLRRHQR [L20R], the protein stability index worked out at 2.59.
